This test has as its target M6P receptor (M6PR) (human). Kind of test: cell-based or functional assay.

B1: Agalsidase alfa (Shire, Replagal) (enzyme, UniProt P06280 32-429, looked up)
chain: LDNGLARTPTMGWLHWERFMCNLDCQEEPDSCISEKLFMEMAELMVSEGWKDAGYEYLCIDDCWMAPQRDSEGRLQADPQRFPHGIRQLANYVHSKGLKLGIYADVGNKTCAGFPGSFGYYDIDAQTFADWGVDLLKFDGCYCDSLENLADGYKHMSLALNRTGRSIVYSCEWPLYMWPFQKPNYTEIRQYCNHWRNFADIDDSWKSIKSILDWTSFNQERIVDVAGPGGWNDPDMLVIGNFGLSWNQQVTQMALWAIMAAPLFMSNDLRHISPQAKALLQDKDVIAINQDPLGKQGYQLRQGDNFEVWERPLSGLAWAVAMINRQEIGGPRSYTIAVASLGKGVACNPACFITQLLPVKRKLGFYEWTSRLRSHINPTGTVLLQLENTMQMSLKDLL
modifications: heterogeneous N-glycans, about 24% phosphorylated (M6P) glycans
Turning to B1, the “intracellular α-gal A activity of Fabry patient fibroblasts after 18 hours incubation with 10 µg/ml enzyme (fold of untreated cells)” value is 116 fold.

The record behind these values is US20220380791A1 (ELEVA, published 2022).
